Experimental data as given in PMC7205462 (eLife, 2020).
Where no end group is shown, it is not given here. fluorescein = fluorescein (from 5-iodoacetamide fluorescein) label on the Cys side chain

How the values were obtained:
[1] = biological target: T1, TmrAB (Thermus thermophilus, UniProt Q72J04+Q72J05, Q72J05:E523Q); assay: biochemical
T1 construct: gene TT_C0976

[2] = biological target: Thermus thermophilus multidrug resistance transport complex TmrAB, wildtype (Thermus thermophilus); assay: radioligand binding; scintillation proximity assay (SPA), equilibrium; His-tagged TmrAB (0.2 µM) in lipid nanodiscs held on copper-chelated SPA beads; R9LQK traced with 3H-R9L; no nucleotide (IF conformation); 20 °C; background with 200 mM imidazole; one-site binding model
[3] = biological target: TmrA^E523QB (Thermus thermophilus); assay: radioligand binding; SPA time course at 20 °C; TmrA^EQB (0.2 µM) first converted to the OF state with Mg2+-ATP (5 min, 45 °C), excess ATP removed by rapid gel filtration, then R9LQK (10 µM, traced with 3H-R9L); mono-exponential fit; apparent
[4] = biological target: TmrA^E523QB (Thermus thermophilus)
[5] = biological target: Thermus thermophilus multidrug resistance transport complex TmrAB, wildtype (Thermus thermophilus)
[6] = biological target: TmrA^E523QB (Thermus thermophilus); conditions: scale: translocated peptides per TmrA^EQB complex
[7] = biological target: TmrA^E523QB (Thermus thermophilus); remark: listed apart in the source

Molecule: Nc1ncnc2c1ncn2[C@@H]1O[C@H](COP(=O)(O)OP(=O)(O)OP(=O)(O)O)[C@@H](O)[C@H]1O [ATP]
- EC50 [1]: 30 µM

Molecule: RRYQKSTEL [R9LQK peptide (…)]
- Kd [2]: 70 µM
- apparent association rate kon (recovery of peptide binding along the OF-to-IF return) [3]: 0.03 min⁻¹
- half-life of the recovery of peptide binding [3]: 24 min

Molecule: RRYC(fluorescein)KSTEL (also: fluorescein attached via 5-iodoacetamide fluorescein) [C4F peptide (RRYC^fluoresceinKSTEL)]
- C4F peptides transported per liposome in the burst phase (0–5 min at 45 °C) of a time course; single-liposome flow cytometry (30 µM C4F, 3 mM Mg2+-ATP) (peptides per liposome) [4]: 30
- transported C4F peptides with ATP against the background control with ADP; single-liposome flow cytometry (30 µM C4F, 3 mM Mg2+-ATP or Mg2+-ADP, 5 min at 45 °C) [5]: 100 fold
- translocated C4F peptides per TmrA^EQB complex; single-turnover transport into proteoliposomes (50 µM C4F, 3 mM Mg2+-ATP, 5 min at 45 °C), fluorescence read-out [6]: 0.5
- C4F peptides translocated per correctly oriented TmrA^EQB upon each IF-to-OF transition; single-liposome flow cytometry (30 µM C4F, 3 mM Mg2+-ATP, two consecutive switches) (peptides per correctly oriented TmrA^EQB) [7]: 1.3
